{"source": "patent US20230183713A1", "about": "“SITE-SPECIFIC RECOMBINASES FOR EFFICIENT AND SPECIFIC GENOME EDITING” (TECHNISCHE UNIVERSITÄt DRESDEN, published 2023)", "key": {"[1]": {"target": "T1, Cre recombinase monomer with Y324R mutation", "T1 chain": "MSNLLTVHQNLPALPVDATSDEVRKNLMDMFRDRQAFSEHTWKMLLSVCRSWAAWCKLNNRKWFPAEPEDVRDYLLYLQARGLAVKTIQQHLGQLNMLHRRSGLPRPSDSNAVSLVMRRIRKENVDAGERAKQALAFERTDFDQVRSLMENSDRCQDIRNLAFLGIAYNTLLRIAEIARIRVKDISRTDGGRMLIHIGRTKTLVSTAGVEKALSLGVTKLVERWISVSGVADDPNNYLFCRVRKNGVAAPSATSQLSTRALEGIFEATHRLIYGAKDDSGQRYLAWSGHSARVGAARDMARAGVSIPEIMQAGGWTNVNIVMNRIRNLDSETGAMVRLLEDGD"}, "[2]": {"target": "T2, Cre recombinase monomer with Y324N mutation", "T2 chain": "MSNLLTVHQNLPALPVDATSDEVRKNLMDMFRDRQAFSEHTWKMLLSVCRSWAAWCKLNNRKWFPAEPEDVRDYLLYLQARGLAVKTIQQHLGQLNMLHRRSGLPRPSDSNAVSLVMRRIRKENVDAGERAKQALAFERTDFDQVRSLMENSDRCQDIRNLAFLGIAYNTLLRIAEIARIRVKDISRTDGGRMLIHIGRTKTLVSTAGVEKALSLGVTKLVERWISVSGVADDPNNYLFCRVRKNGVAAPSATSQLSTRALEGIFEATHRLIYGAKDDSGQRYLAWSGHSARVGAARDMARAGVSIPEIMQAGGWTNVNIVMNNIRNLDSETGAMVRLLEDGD"}, "[3]": {"target": "T3, Cre recombinase monomer with Y324S mutation", "T3 chain": "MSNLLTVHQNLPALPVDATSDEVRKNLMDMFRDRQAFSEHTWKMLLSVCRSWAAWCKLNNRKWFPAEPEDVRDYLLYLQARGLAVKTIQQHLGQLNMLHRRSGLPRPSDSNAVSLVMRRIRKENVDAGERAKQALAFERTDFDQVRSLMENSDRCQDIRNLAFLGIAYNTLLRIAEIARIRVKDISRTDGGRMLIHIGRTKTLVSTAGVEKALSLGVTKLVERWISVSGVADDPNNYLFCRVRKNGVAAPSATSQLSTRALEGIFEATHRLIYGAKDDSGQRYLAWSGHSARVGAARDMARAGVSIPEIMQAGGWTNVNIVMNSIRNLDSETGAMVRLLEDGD"}, "[4]": {"target": "T4, Cre recombinase monomer with W315N mutation", "T4 chain": "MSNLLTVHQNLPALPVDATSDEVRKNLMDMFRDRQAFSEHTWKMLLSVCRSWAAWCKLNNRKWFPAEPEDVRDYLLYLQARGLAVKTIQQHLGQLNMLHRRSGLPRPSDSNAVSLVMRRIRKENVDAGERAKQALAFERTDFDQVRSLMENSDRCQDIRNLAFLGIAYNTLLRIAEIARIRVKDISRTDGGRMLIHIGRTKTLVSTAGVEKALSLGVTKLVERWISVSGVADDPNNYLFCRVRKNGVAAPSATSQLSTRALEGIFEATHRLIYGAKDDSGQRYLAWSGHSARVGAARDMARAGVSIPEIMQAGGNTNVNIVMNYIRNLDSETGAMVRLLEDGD"}, "[5]": {"target": "T5, Cre recombinase monomer with Y324H mutation", "T5 chain": "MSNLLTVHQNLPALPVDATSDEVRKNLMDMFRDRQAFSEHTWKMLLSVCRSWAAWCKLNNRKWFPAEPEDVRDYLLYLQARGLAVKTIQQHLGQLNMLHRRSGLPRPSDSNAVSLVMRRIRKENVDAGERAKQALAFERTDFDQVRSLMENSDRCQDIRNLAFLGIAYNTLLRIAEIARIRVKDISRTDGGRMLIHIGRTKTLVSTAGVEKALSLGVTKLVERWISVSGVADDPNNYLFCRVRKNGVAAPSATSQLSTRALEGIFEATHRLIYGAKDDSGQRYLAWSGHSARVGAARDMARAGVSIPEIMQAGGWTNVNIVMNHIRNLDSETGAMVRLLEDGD"}, "[6]": {"target": "T6, Cre recombinase monomer with Y324L mutation", "T6 chain": "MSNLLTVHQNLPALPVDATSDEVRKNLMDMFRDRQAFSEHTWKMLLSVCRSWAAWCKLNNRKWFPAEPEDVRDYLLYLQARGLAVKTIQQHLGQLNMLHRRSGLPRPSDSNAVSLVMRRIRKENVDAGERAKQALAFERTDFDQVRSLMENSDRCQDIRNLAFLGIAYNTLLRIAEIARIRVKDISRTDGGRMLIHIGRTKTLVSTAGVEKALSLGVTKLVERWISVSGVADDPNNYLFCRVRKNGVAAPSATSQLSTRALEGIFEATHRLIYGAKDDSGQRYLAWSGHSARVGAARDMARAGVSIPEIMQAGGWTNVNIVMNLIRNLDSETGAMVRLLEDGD"}, "[7]": {"target": "T7, Cre recombinase monomer with W315M mutation", "T7 chain": "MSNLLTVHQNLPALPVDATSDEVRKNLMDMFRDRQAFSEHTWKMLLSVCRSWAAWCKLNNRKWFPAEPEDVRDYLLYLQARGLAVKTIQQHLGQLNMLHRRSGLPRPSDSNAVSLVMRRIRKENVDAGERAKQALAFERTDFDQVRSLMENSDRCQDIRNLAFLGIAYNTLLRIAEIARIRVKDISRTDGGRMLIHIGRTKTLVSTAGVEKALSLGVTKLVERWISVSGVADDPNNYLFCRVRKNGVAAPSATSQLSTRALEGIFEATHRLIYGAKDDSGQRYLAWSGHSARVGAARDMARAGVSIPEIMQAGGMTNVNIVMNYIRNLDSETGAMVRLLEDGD"}, "[8]": {"target": "T8, Cre recombinase monomer with W315T mutation", "T8 chain": "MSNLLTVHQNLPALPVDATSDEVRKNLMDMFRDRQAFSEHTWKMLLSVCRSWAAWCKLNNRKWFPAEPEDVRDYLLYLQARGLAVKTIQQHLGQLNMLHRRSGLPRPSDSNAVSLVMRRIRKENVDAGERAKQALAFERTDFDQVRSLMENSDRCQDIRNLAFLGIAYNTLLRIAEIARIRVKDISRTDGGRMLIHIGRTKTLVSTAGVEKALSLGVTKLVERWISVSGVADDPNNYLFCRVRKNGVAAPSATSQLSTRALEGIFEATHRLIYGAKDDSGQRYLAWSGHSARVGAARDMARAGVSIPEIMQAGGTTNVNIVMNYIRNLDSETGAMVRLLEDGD"}}, "data": [{"protein": "Cre recombinase monomer with Q311R mutation (protein) MSNLLTVHQNLPALPVDATSDEVRKNLMDMFRDRQAFSEHTWKMLLSVCRSWAAWCKLNNRKWFPAEPEDVRDYLLYLQARGLAVKTIQQHLGQLNMLHRRSGLPRPSDSNAVSLVMRRIRKENVDAGERAKQALAFERTDFDQVRSLMENSDRCQDIRNLAFLGIAYNTLLRIAEIARIRVKDISRTDGGRMLIHIGRTKTLVSTAGVEKALSLGVTKLVERWISVSGVADDPNNYLFCRVRKNGVAAPSATSQLSTRALEGIFEATHRLIYGAKDDSGQRYLAWSGHSARVGAARDMARAGVSIPEIMRAGGWTNVNIVMNYIRNLDSETGAMVRLLEDGD", "values": [{"measurement": "Median dimer activity (recombination on loxP)", "setting": "[1]", "value": 61, "unit": "%"}, {"measurement": "Median dimer activity (recombination on loxP)", "setting": "[2]", "value": 81, "unit": "%"}, {"measurement": "Median dimer activity (recombination on loxP)", "setting": "[3]", "value": 81, "unit": "%"}, {"measurement": "Median dimer activity (recombination on loxP)", "setting": "[4]", "value": 64, "unit": "%"}, {"measurement": "Median dimer activity (recombination on loxP)", "setting": "[5]", "value": 76, "unit": "%"}, {"measurement": "Median dimer activity (recombination on loxP)", "setting": "[6]", "value": 95, "unit": "%"}, {"measurement": "Median dimer activity (recombination on loxP)", "setting": "[7]", "value": 95, "unit": "%"}, {"measurement": "Median dimer activity (recombination on loxP)", "setting": "[8]", "value": 66, "unit": "%"}]}]}
